# Experiment: soluble on expression in E. coli; label from the status in PepcDB or PDB records
row,Sequence,soluble on expression in E. coli
1,MGALVIRGIRNFNLENRAEREISKMKPSVAPRHPSTNSLLREQISLYPEVKGEIARKDEKLLSFLKDVYVDSKDPVSSLQVKAAETCQEPKEFRLPKDHHFDMINIKSIPKGKISIVEALTLLNNHKLFPETWTAEKIMQEYQLEQKDVNSLLKYFVTFEVEIFPPEDKKAIRSK,soluble
2,MHKPLRIATVTATCAVAGAVLYTTGAASAGQSTANSTHEPYNIGVLAKDIDAYYGTTLDADGVYQASPDSPYAADLARVDAAAKKQIDRAARTAHHKHTRPAVVFDIDDTLLLSLDYEKKNNYGYDGATWAAYVDRADRPAVPGSPELARYADKKGVEVFYNSGLGEAQRAAAVENLKKAGADVNLDASHMFLKDKANPPSYLAHCATPGSWTCTTVQYKAGTRRHIERDLGYDVVANFGDQYSDLQGGYADRTYKLPNPTYFVE,soluble
3,MGLQSLKEPVENSVQDEFSHFWSQHGEWVEEPNVRRGGESGVQRLVMDNGQTLYAKRQTGHIYRSLLHPLGRPTVLREREALEGLRKLGVVVPEVVFCGAERGEDNAWRALLVTVALDGFDEIEKWLAAGGRERHGELFYERMLKEVASTLARMHLGRWQHSCLYIKHVFVRVTGDGPDAKVEVALLDLEKGRRRLTAQGAAQHDMKQLRRHSSFSAADWQKLVYFYQTAFGSSIKGLES,not soluble
4,MSDWNPSLYLHFAAERSRPAVELLARVPLENVDYVADLGCGPGNSTALLHQRWPAARITGIDSSPAMIAEARSALPDCQFVEADIRNWQPEQALDLIFANASLQWLPDHYELFPHLVSLLNPQGVLAVQMPDNWLEPTHVLMREVAWEQNYPDRGRESLAGVHAYYDILSEAGCEVDIWRTTYYHQMPSHQAIIDWVTATGLRPWLQDLTESEQQLFLTRYHQMLKEQYPLQENGQILLAFPRLFIVARRTE,soluble
5,GSHMTRTRMENELIVSKNMQNIIIAGNGPSLKNINYKRLPREYDVFRCNQFYFEDKYYLGKKIKAVFFNPGVFLQQYHTAKQLILKNEYEIKNIFCSTFNLPFIESNDFLHQFYNFFPDAKLGYEVIENLKEFYAYIKYNEIYFNKRITSGVYMCAIAIALGYKTIYLCGIDFYEGDVIYPFEAMSTNIKTIFPGIKDFKPSNCHSKEYDIEALKLLKSIYKVNIYALCDDSILANHFPLSININNNFTLENKHNNSINDILLTDNTPGVSFYKNQLKADNKIMLNFY,soluble
6,MGSDKIHHHHHHMSNLSLDFSDNTFQPLAARMRPENLAQYIGQQHLLAAGKPLPRAIEAGHLHSMILWGPPGTGKTTLAEVIARYASADVERISAVTSGVKEIREAIERARQNRNAGRRTILFVDEVHRFNKSQQDAFLPHIEDGTITFIGATTENPSFELNSALLSRARVYLLKSLTTDDIEQVLDQAMQDKTRGYGDQDIVLPDETRRAIAELVNGDARRALNTLEMMADMAEADDSGKRVLLPALLTEIAGERSARFDNKGDRFYDLISALHKSVRGSAPDAALYWYARIITAGGDPLYVARRCLAIASEDVGNADPRAMQVAIAAWDCFTRVGPAEGERAIAQAIVYLACAPKSNAVYTAFKAALADARERPDYDVPVHLRNAPTKLMKEMGYGQEYRYAHDEPNAYAAGEVYFPPEIAQTRYYHPTNRGLEGKIGEKLAWLAEQDQNSPTKRYR,not soluble
7,MGHHHHHHSHMEQTEVLKPRTLADLIRILHQLFAGDEVNVEEVQAIMEAYESDPIEWAMYAKFDQYRYTRNLVDQGNGKFNLMILCWGEGHGSSIHDHTNSHCFLKMLQGNLKETLFAWPDKKSNEMVKKSERVLRENQCAYINDSIGLHRVENISHTEPAVSLHLYSPPFDTCHAFDQRTGHKNKVTMTFHSKFGIRTPNATSGSLENN,not soluble
8,MAHHHHHHMNLKTKLQKRRDEVNTCLCIGLDPDEADIKSFMQSEKQNGYQSIKKNLSNHGSSSQGGLFTPQVGGTMLLAENPPKEVQEKDEFFYFFNHFCFYIINETKQYALSYKMNFAFYLPYGSLGVDVLKNVFDYLHYLDVPTILDIKMNDIGNTVKHYSKFIFHYLRSDSCTANIYMGTHMLRDICLDEECKRHYSTFVLIKTTNPDSHIFQNRLSLDGKEAYVVIADEAQKMAKQLHLEENGEFVGFVVGANCYDEMKKIRELFPDCYILAPGVGAQKGDLRKTLCNGYSKNYERLLINVGRAITKSGNPQQAAREYYHQIKEILAELRE,soluble
9,GMAFMEKIFPDILEAIRNEEIIKESKKIPMPYFGLFALVIFDKVKELGSETSLYEIGEEFGKMLSPKNIEELKKIFKLMNFGDLEIDENKILLKNPPYKIKLSNPPYQWVSKEEPIHDFIAGILAGCLEEIFYYYFVVNEVECVSQGKDKCVFEVKEVDELNK,soluble
10,MNPQTDNVFYATNAFTGEALPLAFPVHTEVEVNQAATAAAKVARDFRRLNNSKRASLLRTIASELEARSDDIIARAHLETALPEVRLTGEIARTANQLRLFADVVNSGSYHQAILDTPNPTRAPLPKPDIRRQQIALGPVAVFGASNFPLAFSAAGGDTASALAAGCPVIVKGHTAHPGTSQIVAECIEQALKQEQLPQAIFTLLQGNQRALGQALVSHPEIKAVGFTGSVGGGRALFNLAHERPEPIPFYGELGAINPTFIFPSAMRAKADLADQFVASMTMGCGQFCTKPGVVFALNTPETQAFIETAQSLIRQQSPSTLLTPGIRDSYQSQVVSRGSDDGIDVTFSQAESPCVASALFVTSSENWRKHPAWEEEIFGPQSLIVVCENVADMLSLSEMLAGSLTATIHATEEDYPQVSQLIPRLEEIAGRLVFNGWPTGVEVGYAMVHGGPYPASTHSASTSVGAEAIHRWLRPVAYQALPESLLPDSLKAENPLEIARAVDGKAAHS,soluble
11,MGSDKIHHHHHHMFEWVEKISFSEASPLTAQAQDNKFGFHRKRPEVMAHSHWHGHIEINYLFDCSADYLINGQEISVPEGRMIIFWASIPHQMTACHGDGEIVNIYIPLQAFLTWMLPGEFVSQLLHGEVMVSDSLYVCDRQLTQIWEADIASQEPLLASQVINEIRNRIRRMAIEHYSTFNLAHRSGHGVDKPVFGGLNHIQTMLRYIADHYDQKITIENVAMSTGLHKNYAMKLFNRVMKVSIKQYINQLRLQHAQALLIDTENPVLNIALEAGFGSVSRFYDIFQREFNMSPLEFRRRVG,not soluble
12,MGSDKIHHHHHHSCTQDSDTFYPSSPEEEHPSVDESRMIPIQLSVDGVDQFYGGAVTRSGETVARLVQPLDSTYDTGYDVETTVESIPLENIVSTRANLGNVQFRVVAYRTDASSADHYAGTAVYKTNGSGVAAIVAKTATPVNSAGQWILGPGTYTFVCYSYGLNSAPAMLSGNWSATVSHNQDFMLCRKEEVVVAPDDRGEFTLGGISFTRQCALLQLAVTANDFTNNTVQQCAATVSNLNSNNITWNAGQTALSTGGTGGAVNFSWSSLNAATVNSNVYKVLPQSSRTLTIKLTTLRIGNIQYNNRVTVNASGRQFAAGGNYKITVKITGNGITVGGATWAKGNVYKSGSNFYFESSQSGYHSGTQGGSFFGWNTLSSTNNTYGGSSFSSDNDPCYQVAPRGTWCTPTANQLQNLGNSGYRSGYLDGKRGGYFGGNKVFLPAMGNRGKNNVNYWPETGYYRSSTGASGKRCYYLEFNQSYAVKNNYYWYWDGFPIRCVKR,not soluble
13,GHMPGRAPGSTLARVGSIPAGDDVLDPDEPTYDLPRVAELLGVPVSKVAQQLREGHLVAVRRAGGVVIPQVFFTNSGQVVKSLPGLLTILHDGGYRDTEIMRWLFTPDPSLTITRDGSRDAVSNARPVDALHAHQAREVVRRAQAMAY,soluble
14,MSKNKNDYEHMLFYFAYKTFITTADEIIEQYGMSRQHHRFLFFINKLPGITIKELLITLEISKQGSHATLRKLKEEGLIVEQTSKQDRRVKKLFTTEAGDDLIGKLNQAQDELIQQTLQKVGHDWYAMMEELANYREGFKTIEHLKED,soluble
15,MQTSNITNHERNDSSWMSTVKSTTEVSWNKLSFCDILLKIITFGIYSPHETLAEKHSEKKLMDSFSPSLSQDKMDGEFAHANIDGISIRLCLNKGICSVFYLDGDKIQSTQLSSKEYNNLLSSLPPKQFNLGKVHTITAPVSGNFKTHKPAPEVIETAINCCTSIIPNDDYFHVKDTDFNSVWHDIYRDIRASDSNSTKIYFNNIEIPLKLIADLINELGINEFIDSKKELQMLSYNQVNKIINSNFPQQDLCFQTEKLLFTSLFQDPAFISALTSAFWQSLHITSSSVEHIYAQIMSENIENRLNFMPEQRVINNCGHIIKINAVVPKNDTAISASGGRAYEVSSSILPSHITCNGVGINKIETSYLVHAGTLPSSEGLRNAIPPESRQVSFAIISPDV,not soluble
16,MAKPFTPEQREELKTRIVELVHQDGRVTIRQLSDETGISRASVGRLCIELVASGDVYNSGYGLFPSEQARKDWQSARKKLSRVKVRKPVVVDPDLIWSLPDGEIRRYDRRLNIICRECRKSEAMQRVLAFYQGNFQEAIL,not soluble
17,MDVIRSSASDILGALRSRQLSSEAVMEATLARIAAVNPELNAIVALRPTDELLAEARAADAVAPEARGALHGLPIAVKDLVETAGIVSSHGSPLFRDHVPERDDLIAARIRAAGAILIGKTNVPEFGLGSHTFNPVYGATGNPYAPNLTCGGSSGGAAVALATGMTALADGSDMMGSLRNPAAWCNVYGFRPSWGRVPSEPLGDTFLHQLATLGPMGRSPADIAILLDVISGADPRQPHGFDSAPVAPLRPAATRGLRLGWLGDWGGAFPTEPGILPLCETALKIFSDLGCTVEKVPPPFDAEALWESWITLRSWSVGAGLAPLSEKRAQLKDSAQWELDRGLALSAMEVDRASVTRSAWFMRATELFESYDALILPSAQVWPFDLDRPYPTEIAGQAMDTYHRWMQVVTPVSLIGLPSLAMPAGFGDAGLPMGVQIFGPRGGDAALLALGEAYHAATTWPQRHP,not soluble
18,MGEIQTLNEQHSVGKPVIRLSGISKSFDGKEIIGNLNLDVNHGEFLTILGPSGCGKTTVLRMIAGFETADQGQILLDDQDVTQVPAEQRHVNTVFQSYALFPHMTVFENVAFGLRMQKVPQSEIEPRVMEALRMVRLAEMAQRKPHQLSGGQQQRIAIARAVVNKPKVLLLDESLSALDYKLRKQMQSELKQLQRQLGITFIFVTHDQEEALSMSDRIIVMRSGKIEQDGSPREIYEDPKNLFVARFIGEINVFQATTIDRIDEKRIRVDIEGIESIVYYEDEVKAGDKLQVLLRPEDLRIEEIKESEEKGIVGHVTDRTYKGMTLESVVELESGMCVMVSEFFNEDDPDVDHSIGQKVAVTWVESWEVVLNDEQKA,not soluble
19,MQVLVRDNNVDQALRALKKKMQREGIFREMKMRGYYEKPSEKRAREKAEAVRRTRKLARKRAQREGLISNGRGSPLKLEHHHHHH,not soluble
20,MTWNESHGERIIRRFERDIFPWIGSKPISEIAAPELLATVRRIESRGAVETAHRALGNCGQVFRYAIATARATRDISADLRGALPPVKGEHLEHHHHHH,not soluble
21,MSLDFNTLAQNFTQFYYNQFDTDRSQLGNLYRNESMLTFETSQLQGAKDIVEKLVSLPFQKVQHRITTLDAQPASPYGDVLVMITGDLLIDEEQNPQRFSQVFHLIPDGNSYYVFNDIFRLNYSA,soluble
22,MTLIDCCDPQKPSRVLFHFLILDAPSPSNLPTYIKELQHRGVRHLVRVCGPTYDATLVKSRGIDVHSWPFDDGAPPTRAVLDSWLKLLDTELARQQEDPSVPPPTIGVHCVAGLGRAPILVALALVEYGNVSALDAIALIREKRKGAINQTQMHWITKYKR,not soluble
